For the assay, the system named is ALPP/ALPPL2-expressing HEK293 cells. The assay is described as follows: Flow cytometry and saturation binding of mouse antibodies. The arrangement: species or system human. The conditions noted are these: flow cytometry. The method, then: Cynomolgus ALPP, human ALPP, ALPPL2, ALPI and ALPL-expressing HEK293 cells were used to evaluate specificity and binding affinity. Briefly, one hundred thousand target-expressing HEK293 cells were transferred to 96-well plates. Cells were pelleted by centrifugation and resuspended in 100 μL of PBS+2% w/v BSA. After blocking, cells were resuspended in PBS+2% w/v BSA with unlabeled monoclonal anti-ALPP/ALPPL2 antibodies ranging in concentration from 8 pM to 666 nM and incubated on ice for 30 minutes. Cells were washed twice in PBS and resuspended in R-PE labeled secondary goat anti-human or anti-mouse antibodies (Jackson Immunoresearch, West Grove, PA) for 30 minutes on ice. Specificity of monoclonal antibodies for human and cynomolgus ALPP and ALPPL2, but not other members of this alkaline phosphatase family was confirmed by flow cytometry. Fluorescence was analyzed using an Attune NxT flow cytometer, and the percent of saturated fluorescent signal was used to determine percent bound and to subsequently calculate apparent KD.
Background: A flow cytometer gives signals particle by particle.

Data on 1 molecule can be found in patent US20250276076A1, “ANTI-ALPP/ALPPL2 ANTIBODIES AND ANTIBODY-DRUG CONJUGATES” (SEAGEN INC., priority 2021, published 2025).

B1: 12F3: murine anti-ALPP/ALPPL2 monoclonal antibody selected for humanization (antibody, V domains shown)
VH: EVKLVESGGGLVQPGGSLSLSCAASGFTFTDYYMSWVRQPPGKALEWLALIRNKATGYTTEYSASVKGRFTISRDNSQSILYLQMNALRAEDSATYYCARASFYYDGKVLAYWGQGTLVTVSA
VL: DTQMTQSPSSLSASLGGKVTITCKASQDINKYIAWYQYKTGKGPRLLIHYTSTLQPGIPSRFSGSGSGRDYSFSISNLEPEDIATYYCLQYDNLYTFGGGTKLEIK
In the case of B1, the “saturation levels for ALPP” value is on record as “higher saturation levels for ALPP than SG84-1F7”.
